Laboratory results from article PMC5456053.

Target: SecYEG-SecDF•YajC (E. coli) (UniProt P0AGA2)

| % pOmpA Translocation, +YEG: in vitro translocation of pOmpA into liposomes with SecYEG-SecDF•YajC (% pOmpA Translocation) | Channel Activity, μA, +YEG: ion current in Xenopus oocytes injected with the fragment, liposomes, SecYEG-SecDF•YajC, pOmpA, ATP-Mg [μA] | Binder |
| --- | --- | --- |
| 0 |  | SecA N798* (SecA 1-798, D798R) (domain or fragment) MLIKLLTKVFGSRNDRTLRRMRKVVNIINAMEPEMEKLSDEELKGKTAEFRARLEKGEVLENLIPEAFAVVREASKRVFGMRHFDVQLLGGMVLNERCIAEMRTGEGKTLTATLPAYLNALTGKGVHVVTVNDYLAQRDAENNRPLFEFLGLTVGINLPGMPAPAKREAYAADITYGTNNEYGFDYLRDNMAFSPEERVQRKLHYALVDEVDSILIDEARTPLIISGPAEDSSEMYKRVNKIIPHLIRQEKEDSETFQGEGHFSVDEKSRQVNLTERGLVLIEELLVKEGIMDEGESLYSPANIMLMHHVTAALRAHALFTRDVDYIVKDGEVIIVDEHTGRTMQGRRWSDGLHQAVEAKEGVQIQNENQTLASITFQNYFRLYEKLAGMTGTADTEAFEFSSIYKLDTVVVPTNRPMIRKDLPDLVYMTEAEKIQAIIEDIKERTAKGQPVLVGTISIEKSELVSNELTKAGIKHNVLNAKFHANEAAIVAQAGYPAAVTIATNMAGRGTDIVLGGSWQAEVAALENPTAEQIEKIKADWQVRHDAVLEAGGLHIIGTERHESRRIDNQLRGRSGRQGDAGSSRFYLSMEDALMRIFASDRVSGMMRKLGMKPGEAIEHPWVTKAIANAQRKVESRNFDIRKQLLEYDDVANDQRRAIYSQRNELLDVSDVSETINSIREDVFKATIDAYIPPQSLEEMWDIPGLQERLKNDFDLDLPIAEWLDKEPELHEETLRERILAQSIEVYQRKEEVVGAEMMRHFEKGVMLQTLDSLWKEHLAAMDYLRQGIHLRGYAQKR |
| 7.6 |  | SecA N828 (SecA 1-828) (domain or fragment) MLIKLLTKVFGSRNDRTLRRMRKVVNIINAMEPEMEKLSDEELKGKTAEFRARLEKGEVLENLIPEAFAVVREASKRVFGMRHFDVQLLGGMVLNERCIAEMRTGEGKTLTATLPAYLNALTGKGVHVVTVNDYLAQRDAENNRPLFEFLGLTVGINLPGMPAPAKREAYAADITYGTNNEYGFDYLRDNMAFSPEERVQRKLHYALVDEVDSILIDEARTPLIISGPAEDSSEMYKRVNKIIPHLIRQEKEDSETFQGEGHFSVDEKSRQVNLTERGLVLIEELLVKEGIMDEGESLYSPANIMLMHHVTAALRAHALFTRDVDYIVKDGEVIIVDEHTGRTMQGRRWSDGLHQAVEAKEGVQIQNENQTLASITFQNYFRLYEKLAGMTGTADTEAFEFSSIYKLDTVVVPTNRPMIRKDLPDLVYMTEAEKIQAIIEDIKERTAKGQPVLVGTISIEKSELVSNELTKAGIKHNVLNAKFHANEAAIVAQAGYPAAVTIATNMAGRGTDIVLGGSWQAEVAALENPTAEQIEKIKADWQVRHDAVLEAGGLHIIGTERHESRRIDNQLRGRSGRQGDAGSSRFYLSMEDALMRIFASDRVSGMMRKLGMKPGEAIEHPWVTKAIANAQRKVESRNFDIRKQLLEYDDVANDQRRAIYSQRNELLDVSDVSETINSIREDVFKATIDAYIPPQSLEEMWDIPGLQERLKNDFDLDLPIAEWLDKEPELHEETLRERILAQSIEVYQRKEEVVGAEMMRHFEKGVMLQTLDSLWKEHLAAMDYLRQGIHLRGYAQKDPKQEYKRESFSMFAAMLESLKYEVISTLSK |
|  | 1.1 | SecA N639* (SecA 1-639, F639D) (domain or fragment) MLIKLLTKVFGSRNDRTLRRMRKVVNIINAMEPEMEKLSDEELKGKTAEFRARLEKGEVLENLIPEAFAVVREASKRVFGMRHFDVQLLGGMVLNERCIAEMRTGEGKTLTATLPAYLNALTGKGVHVVTVNDYLAQRDAENNRPLFEFLGLTVGINLPGMPAPAKREAYAADITYGTNNEYGFDYLRDNMAFSPEERVQRKLHYALVDEVDSILIDEARTPLIISGPAEDSSEMYKRVNKIIPHLIRQEKEDSETFQGEGHFSVDEKSRQVNLTERGLVLIEELLVKEGIMDEGESLYSPANIMLMHHVTAALRAHALFTRDVDYIVKDGEVIIVDEHTGRTMQGRRWSDGLHQAVEAKEGVQIQNENQTLASITFQNYFRLYEKLAGMTGTADTEAFEFSSIYKLDTVVVPTNRPMIRKDLPDLVYMTEAEKIQAIIEDIKERTAKGQPVLVGTISIEKSELVSNELTKAGIKHNVLNAKFHANEAAIVAQAGYPAAVTIATNMAGRGTDIVLGGSWQAEVAALENPTAEQIEKIKADWQVRHDAVLEAGGLHIIGTERHESRRIDNQLRGRSGRQGDAGSSRFYLSMEDALMRIFASDRVSGMMRKLGMKPGEAIEHPWVTKAIANAQRKVESRND |
|  | 0.4 | SecA N632 (SecA 1-632) (domain or fragment) MLIKLLTKVFGSRNDRTLRRMRKVVNIINAMEPEMEKLSDEELKGKTAEFRARLEKGEVLENLIPEAFAVVREASKRVFGMRHFDVQLLGGMVLNERCIAEMRTGEGKTLTATLPAYLNALTGKGVHVVTVNDYLAQRDAENNRPLFEFLGLTVGINLPGMPAPAKREAYAADITYGTNNEYGFDYLRDNMAFSPEERVQRKLHYALVDEVDSILIDEARTPLIISGPAEDSSEMYKRVNKIIPHLIRQEKEDSETFQGEGHFSVDEKSRQVNLTERGLVLIEELLVKEGIMDEGESLYSPANIMLMHHVTAALRAHALFTRDVDYIVKDGEVIIVDEHTGRTMQGRRWSDGLHQAVEAKEGVQIQNENQTLASITFQNYFRLYEKLAGMTGTADTEAFEFSSIYKLDTVVVPTNRPMIRKDLPDLVYMTEAEKIQAIIEDIKERTAKGQPVLVGTISIEKSELVSNELTKAGIKHNVLNAKFHANEAAIVAQAGYPAAVTIATNMAGRGTDIVLGGSWQAEVAALENPTAEQIEKIKADWQVRHDAVLEAGGLHIIGTERHESRRIDNQLRGRSGRQGDAGSSRFYLSMEDALMRIFASDRVSGMMRKLGMKPGEAIEHPWVTKAIANAQR |
|  | 3.2 | SecA N643 (SecA 1-643) (domain or fragment) MLIKLLTKVFGSRNDRTLRRMRKVVNIINAMEPEMEKLSDEELKGKTAEFRARLEKGEVLENLIPEAFAVVREASKRVFGMRHFDVQLLGGMVLNERCIAEMRTGEGKTLTATLPAYLNALTGKGVHVVTVNDYLAQRDAENNRPLFEFLGLTVGINLPGMPAPAKREAYAADITYGTNNEYGFDYLRDNMAFSPEERVQRKLHYALVDEVDSILIDEARTPLIISGPAEDSSEMYKRVNKIIPHLIRQEKEDSETFQGEGHFSVDEKSRQVNLTERGLVLIEELLVKEGIMDEGESLYSPANIMLMHHVTAALRAHALFTRDVDYIVKDGEVIIVDEHTGRTMQGRRWSDGLHQAVEAKEGVQIQNENQTLASITFQNYFRLYEKLAGMTGTADTEAFEFSSIYKLDTVVVPTNRPMIRKDLPDLVYMTEAEKIQAIIEDIKERTAKGQPVLVGTISIEKSELVSNELTKAGIKHNVLNAKFHANEAAIVAQAGYPAAVTIATNMAGRGTDIVLGGSWQAEVAALENPTAEQIEKIKADWQVRHDAVLEAGGLHIIGTERHESRRIDNQLRGRSGRQGDAGSSRFYLSMEDALMRIFASDRVSGMMRKLGMKPGEAIEHPWVTKAIANAQRKVESRNFDIRK |
